From paper PMC3386925 come the findings set out here.

The target in the assay is calcitonin receptor (bovine (endogenous in bovine articular cartilage explants)).

salmon calcitonin (peptide): the share of CTR-positive cells (immunohistochemistry) in the deep layer of T3-induced explants after four days of co-stimulation with 1 nM and 10 nM sCT was less than 43%.
